Assay [1] addresses T1, human CD3 epsilon (Acro Cat #CDE-H5223) (human, UniProt P07766 23-126).
T1 construct: Bought recombinant protein; also called rhCD3E
The assay is described as follows: SPR (Biacore), antibody captured, human CD3 epsilon analyte. How it is done:
(§1) Anti-Fab or anti-Fc polyclonal antibodies were immobilized onto a CM5 chip (GE Life Sciences) using amine coupling chemistry (from Amine Coupling Kit, GE Life Sciences). The immobilization steps were carried out at a flow rate of 25 μl/min in 1×HBS-EP+ buffer (GE Life Sciences; 10× Stock diluted before use). The sensor surfaces were activated for 7 min with a mixture of NHS (0.05 M) and EDC (0.2 M). The Anti-Fab or Anti-Fc antibodies were injected over all 4 flow cells at a concentration of 25 μg/mL in 10 mM sodium acetate, pH 4.5, for 7 min. Ethanolamine (1 M, pH 8.5) was injected for 7 min to block any remaining activated groups.
(§2) Off-rate and kinetic binding experiments were performed at 25° C. using 1×HBS-EP+ buffer. Test and control antibodies were injected over the anti-Fab or anti-Fc surface at concentrations of 5-10 μg/mL for 12 seconds at a flow rate of 10 μL/min on flow cells 2, 3 and 4, followed by a buffer wash for 30 seconds at the same flow rate. […] After capturing ligand (antibody) on the anti-Fc or anti-Fab surface, the analyte (human CD3 epsilon, Acro Cat #CDE-H5223) was bound for 180 seconds, followed by a 600 second dissociation phase at a flow rate of 50 μL/min. Between each ligand capture and analyte binding cycle, regeneration was carried out using two injections of 10 mM Glycine pH 2.0 for 30 seconds at 30 μL/min, followed by a 30 second buffer wash step.
(§3) The data was fit with the Biacore T200 Evaluation software, using a 1-1 Langmuir binding model. KD (affinity, nM) was determined as a ratio of the kinetic rate constants calculated from the fits of the association and dissociation phases.
On the technique in general: Surface plasmon resonance follows binding to a sensor surface in real time, without labels.

A further assay has as its target T2, cynomolgus CD3 epsilon (cynomolgus monkey, UniProt Q95LI5 22-117, limits assumed).
T2 construct: Recombinant protein; also called cyno CD3E
T2 sequence: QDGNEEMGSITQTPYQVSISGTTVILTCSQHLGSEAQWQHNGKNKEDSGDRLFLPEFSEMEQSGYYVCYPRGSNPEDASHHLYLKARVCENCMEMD
The assay is described as follows: SPR (Biacore), antibody captured, cynomolgus CD3 epsilon analyte.

The target of assay [2] is T1, human CD3 epsilon (Acro Cat #CDE-H5223). As to the kind of experiment: SPR (Biacore), antibody captured, human CD3 epsilon analyte. How it is done: as §1, §2, §3
This is another data set of the same source.

Assay [3] has as its target T3, human CD3 on T-cell lines (CD3-expressing Jurkat cells; HUT78 cells) (human, UniProt P07766 23-207).
T3 construct: On cells it stands in the CD3/TCR complex
The assay is described as follows: flow cytometry, HUT78 cells. (In general: Flow cytometry measures light scatter and fluorescence of single cells or particles in a stream.)

Assay [4] has as its target T3, human CD3 on T-cell lines …. The assay is described as follows: flow cytometry, HUT78 cells. The source holds these as a separate data set.

The values that follow come from patent US20240124585A1 (SUTRO BIOPHARMA, published 2024).

Broadly, the Kd is the constant that tells how readily two partners part at equilibrium. Read a low Kd as tighter binding. The koff is the rate constant with which the complex falls apart. The low end stands for a long-lived complex, the high end for a short-lived complex. By kon is commonly meant a measure of how fast the partners come together. Higher therefore signals faster complex formation.

Where a chain is given by its changes, count along the chain named. Numbers in names are those of the source. Where two headings read alike, the source gives them in different places.

T1 sequence (P07766 23-126 limits assumed): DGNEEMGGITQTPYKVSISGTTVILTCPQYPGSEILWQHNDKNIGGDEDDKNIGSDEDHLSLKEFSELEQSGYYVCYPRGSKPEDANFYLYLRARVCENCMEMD
T3 sequence (P07766 23-207 limits assumed): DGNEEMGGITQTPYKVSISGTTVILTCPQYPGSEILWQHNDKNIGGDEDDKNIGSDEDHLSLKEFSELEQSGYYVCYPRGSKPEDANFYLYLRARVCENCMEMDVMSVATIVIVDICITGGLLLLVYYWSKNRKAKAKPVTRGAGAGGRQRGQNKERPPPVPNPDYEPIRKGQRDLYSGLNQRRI

B1: 2037-B10_Hc-F29D (antibody, human IgG1, lambda, V domains shown)
VH: EVQLVESGGGLVKPGGSLRLSCAASGFTDNKYAMNWVRQAPGKGLEWVARIRTKYNNYATYYADSVKDRFTISRDDSKNTAYLQMNSLKTEDTAVYYCVRHGNFGNSYISYWAYWGQGTPVTVSS
VL: QTVVTQEPSLTVSPGGTVTLTCGSSTGAVTSGYYPNWLQQKPGQAPRGLIGGTKFLAPGTPARFSGSLLGGKAALTLSGVQPEDEAEYYCALWYSNRWVFGGGTQLTVTG
notes: human IgG1, lambda; also called SRP 2037 F29D; 2037-B10_VH-F29D
B1: the Kd in assay [1] stood at 2.36 nM; with cynomolgus CD3 epsilon, 2.69 nM; in assay [2], 11 nM; in assay [3] it was 1.87 nM. Also, the figures for the koff (in assay [1]; with cynomolgus CD3 epsilon; in assay [2]) were 0.000491 s⁻¹, 0.000573 s⁻¹ and 0.000453 s⁻¹, respectively. In addition, the kon in assay [1] was 208000 M⁻¹ s⁻¹; in the assay with cynomolgus CD3 epsilon it was 213000 M⁻¹ s⁻¹; in assay [2], 41200 M⁻¹ s⁻¹. For the same molecule, the “Bmax (MFI)” value in assay [3] came out at 1080 MFI.

B2: SRP 2037-B10 F104D/LC6 (antibody, human IgG1, kappa, V domains shown)
VH: B1 VH with D29F, F104D
VL: DIQMTQSPSSLSASVGDRVTITCGSSTGAVTSGYYPNWLQQKPGQAPRGLIGGTKFLAPGVPSRFSGSLSGGKATLTISSLQPEDFATYYCALWYSNRWVFGGGTKVEIKR
notes: human IgG1, kappa
For the molecule B2, in the assay with cynomolgus CD3 epsilon, the Kd is 14.9 nM, the koff amounted to 0.00165 s⁻¹ and the kon turned out to be 111000 M⁻¹ s⁻¹. In assay [2], this molecule had a Kd of 3.7 nM, a koff of 0.000374 s⁻¹ and a kon of 101000 M⁻¹ s⁻¹. In assay [4], the “HUT78 Bmax” value turned out to be 760 and the Kd came out at 24.6 nM.

B3: 2037-B10_Hc-F104D (antibody, human IgG1, lambda, V domains shown)
VH: B1 VH with D29F, F104D
VL: B1 VL
notes: human IgG1, lambda; also called SRP 2037 F104D; 2037-B10_VH-F104D
In the case of B3, in assay [1], the Kd was found to be 7.82 nM, the koff was 0.000631 s⁻¹ and the kon was determined as 80700 M⁻¹ s⁻¹. Further, in the assay with cynomolgus CD3 epsilon, the affinity, expressed as Kd, was 6.45 nM; the koff turned out to be 0.00107 s⁻¹; the kon turned out to be 166000 M⁻¹ s⁻¹. Moreover, in assay [2], the Kd came to 3.38 nM, the koff was found to be 0.000241 s⁻¹ and the kon is 71200 M⁻¹ s⁻¹. In addition, in assay [4], the “HUT78 Bmax” value was determined as 1200 and the Kd stood at 23 nM. Also, in assay [3], the “Bmax (MFI)” value is 617 MFI and the Kd worked out at 1.72 nM.

B4: SRP 2037-B10 F29D/LC6 (antibody, human IgG1, kappa, V domains shown)
VH: B1 VH
VL: B2 VL
notes: human IgG1, kappa
In the assay with cynomolgus CD3 epsilon, B4 came in with a Kd of 5.87 nM, a koff of 0.00121 s⁻¹ and a kon of 206000 M⁻¹ s⁻¹. In assay [2], this molecule returned a Kd of 18.5 nM, a koff of 0.000749 s⁻¹ and a kon of 40500 M⁻¹ s⁻¹. In assay [4], the “HUT78 Bmax” value stood at 1040 and the Kd is 3.72 nM.

B5: 2037-B10_Hc-S107D (antibody, human IgG1, lambda, V domains shown)
VH: B1 VH with D29F, S107D
VL: B1 VL
notes: human IgG1, lambda; also called SRP 2037 S107D; 2037-B10_VH-S107D
In the case of B5, in assay [1], the Kd is 1.47 nM, the koff was found to be 0.000215 s⁻¹ and the kon was 146000 M⁻¹ s⁻¹. In the assay with cynomolgus CD3 epsilon, this molecule showed a Kd of 1.64 nM, a koff of 0.00034 s⁻¹ and a kon of 207000 M⁻¹ s⁻¹. In assay [2], the Kd was found to be 5.06 nM, the koff was 0.00041 s⁻¹ and the kon stood at 81000 M⁻¹ s⁻¹. In assay [4], the “HUT78 Bmax” value was found to be 1630 and the Kd came to 15.6 nM. Moreover, in assay [3], the “Bmax (MFI)” value stood at 1060 MFI and binding was characterised by a dissociation constant (Kd) of 1.72 nM.

B6: SRP 2037-B10 Y55D/R97D (antibody, human IgG1, lambda, V domains shown)
VH: B1 VH with D29F, Y55D
VL: B1 VL with R97D
notes: human IgG1, lambda
B6: in assay [2], binding was characterised by a dissociation constant (Kd) of 5.07 nM, the koff came out at 0.000441 s⁻¹ and the kon was determined as 87000 M⁻¹ s⁻¹. In assay [4], the “HUT78 Bmax” value was found to be 1190 and the Kd came out at 62.4 nM.

B7: SRP 2037-B10 Y55D/LC6 (antibody, human IgG1, kappa, V domains shown)
VH: B1 VH with D29F, Y55D
VL: B2 VL
notes: human IgG1, kappa
In the assay with cynomolgus CD3 epsilon, B7 yielded a Kd of 2.09 nM, a koff of 0.000945 s⁻¹ and an association rate constant (kon) of 451000 M⁻¹ s⁻¹. In assay [2], this molecule returned a Kd of 3.89 nM, a koff of 0.000392 s⁻¹ and a kon of 101000 M⁻¹ s⁻¹. In addition, in assay [4], the “HUT78 Bmax” value stood at 1250 and the affinity, expressed as Kd, was 6.35 nM.

B8: SRP 2037-B10 Y61D/LC6 (antibody, human IgG1, kappa, V domains shown)
VH: B1 VH with D29F, Y61D
VL: B2 VL
notes: human IgG1, kappa
In the assay with cynomolgus CD3 epsilon, B8 showed a Kd of 3.99 nM, a koff of 0.00154 s⁻¹ and a kon of 387000 M⁻¹ s⁻¹. In assay [2], this molecule showed a Kd of 3.63 nM, a koff of 0.000369 s⁻¹ and a kon of 102000 M⁻¹ s⁻¹. Moreover, in assay [4], the “HUT78 Bmax” value was determined as 737 and binding was put at a Kd of 6.61 nM.

B9: SRP 2037-B10 S107D/LC6 (antibody, human IgG1, kappa, V domains shown)
VH: B1 VH with D29F, S107D
VL: B2 VL
notes: human IgG1, kappa; also called 2037-B10 IgG S107D Lc6
In the assay with cynomolgus CD3 epsilon, B9 registered a Kd of 3.41 nM, a koff of 0.000558 s⁻¹ and a kon of 164000 M⁻¹ s⁻¹. In assay [2], this molecule showed a Kd of 8.62 nM, a koff of 0.000459 s⁻¹ and a kon of 53200 M⁻¹ s⁻¹. Besides, in assay [4], the “HUT78 Bmax” value was 1550 and binding was put at a Kd of 17.3 nM.

B10: 2037-B10_Hc-Y55D (antibody, human IgG1, lambda, V domains shown)
VH: B1 VH with D29F, Y55D
VL: B1 VL
notes: human IgG1, lambda; also called SRP 2037 Y55D; 2037-B10_VH-Y55D
Take B10: in assay [1], the affinity, expressed as Kd, was 1.31 nM; the koff came to 0.000372 s⁻¹; the kon was determined as 284000 M⁻¹ s⁻¹. In addition, in the assay with cynomolgus CD3 epsilon, binding was put at a Kd of 1 nM, the koff came out at 0.00058 s⁻¹ and the kon is 579000 M⁻¹ s⁻¹. Also, in assay [2], binding was put at a Kd of 2.45 nM, the koff was determined as 0.000277 s⁻¹ and the kon came to 113000 M⁻¹ s⁻¹. In assay [4], the “HUT78 Bmax” value came to 1270 and the Kd is 9.36 nM. Moreover, in assay [3], the “Bmax (MFI)” value was found to be 544 MFI and binding was characterised by a dissociation constant (Kd) of 0.27 nM.

B11: 2037-B10_Lc-R97D (antibody, V domains shown)
VH: not shown
VL: B1 VL with R97D
notes: human IgG1, lambda; also called SRP 2037 R97D; 2037-B10 VL-R97D
As for B11, in assay [2], binding was characterised by a dissociation constant (Kd) of 1.49 nM, the off-rate constant (koff) was found to be 0.000257 s⁻¹ and the kon is 172000 M⁻¹ s⁻¹. In assay [4], the “HUT78 Bmax” value was found to be 2080 and the affinity, expressed as Kd, was 2.93 nM. Further, in assay [3], the “Bmax (MFI)” value was determined as 953 MFI and the Kd is 0.58 nM.

B12: SRP 2037-B10 Y61D/R97D (antibody, human IgG1, lambda, V domains shown)
VH: B1 VH with D29F, Y61D
VL: B1 VL with R97D
notes: human IgG1, lambda
In assay [2], B12 gave a Kd of 3.91 nM, a koff of 0.00029 s⁻¹ and a kon of 74000 M⁻¹ s⁻¹. Also, in assay [4], the “HUT78 Bmax” value was found to be 2000 and the Kd worked out at 121 nM.
